The chains are these.
B1: 7E3 (hybridoma clone, murine CLDN18.2 antigen-binding protein) (antibody, V domains shown)
VH: EVQLQQSGPELVKPGASVKMSCKASGYTFTNYIIHWVKQKPGQGLEWIGYINPYTDGPKYNEKFKGRATLTSDKSSSTAYMEFSSLTSEDSAVYYCARLNRGNAMDYWGQGTSVTVSS
VL: DIVMTQSPSSLTVTVREKVTLSCKSSQSLLNSGNQKNYLTWYQQKPGQPPKLLIYWASTRESGVPDRFTGSGSGTDFTLTISSVQAEDLAVYYCQNVYIYPFTFGAGTKLELKR
B2: 17B10 (hybridoma clone, murine CLDN18.2 antigen-binding protein) (antibody, V domains shown)
VH: B1 VH with Q6E
VL: B1 VL with V15A, R16G, L21M, S22N, V97D, I99S, Y100F, A106S, L112I
B3: 5E6 (hybridoma clone, murine CLDN18.2 antigen-binding protein) (antibody, V domains shown)
VH: B1 VH with I33V, I34M, H35N, T55N, P58T, K63R, R67K, Y80F, F83V, N100Y
VL: B1 VL
B4: 14E12 (hybridoma clone, murine CLDN18.2 antigen-binding protein) (antibody, V domains shown)
VH: B1 VH with Q6E
VL: DIVMTQSPSSLSVSAGEKVTMSCKSSQSLLNNGNQKNYLAWYQQKPGQPPKLLIYGASTRESGVPDRFTGSGSGTDFALTISSVQAEDLAVYYCQNDLYYPFTFGSGTKLDIKR

Residue numbers refer to the chain shown, from its start.

Sequence of Human CLDN18.1 (human) (P56856 whole entry): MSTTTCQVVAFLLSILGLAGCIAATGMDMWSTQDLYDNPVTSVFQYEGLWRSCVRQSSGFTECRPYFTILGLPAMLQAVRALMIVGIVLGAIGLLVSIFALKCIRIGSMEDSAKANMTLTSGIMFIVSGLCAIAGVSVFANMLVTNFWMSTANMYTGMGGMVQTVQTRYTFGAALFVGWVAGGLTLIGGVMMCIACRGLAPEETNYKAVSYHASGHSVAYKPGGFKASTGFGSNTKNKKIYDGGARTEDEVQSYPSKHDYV

The first assay concerns the target Human CLDN18.1 (human) (UniProt P56856). Kind of assay: FACS, hybridoma culture supernatant on CHO-human CLDN18.1 cells (permeable membrane treatment). A general note: In flow cytometry, cells or beads pass a laser one at a time.
The molecule B1 came in with an Average fluorescence intensity of 3380.
On the same count and under the same terms, the result for B2 reads 1680; that for B3, 5370.
The same measure, in the same setting: to B4 belongs 1860.

The target is the same in the next assay. Kind of assay: FACS, hybridoma culture supernatant on 293T-human CLDN18.1 cells (permeable membrane treatment).
The molecule B1 came in with an Average fluorescence intensity of 3040.
On the same count and under the same terms, to B2 belongs 2400; to B3, 4330.
Same read-out and setting: the result for B4 reads 2580.

The record behind these values is patent US20240182562A1.
